Measured values reported in patent US20130288275.

How the values were obtained:
[1] = target: Purified SUMO-1 (Biomol UW9190), not acetylated
[2] = target: Purified SUMO-2 (Biomol UW9200)
[3] = target: Purified SUMO-3 (Biomol UW9210)
Chain of Purified SUMO-3 (Biomol UW9210) (P55854 whole entry): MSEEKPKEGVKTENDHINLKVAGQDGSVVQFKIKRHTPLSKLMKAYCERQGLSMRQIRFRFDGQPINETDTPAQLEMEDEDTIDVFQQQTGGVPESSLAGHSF

B1: PCAF (protein)
chain: GVIEFHVVGNSLNQKPNKKILMWLVGLQNVFSHQLPRMPKEYITRLVFDPKHKTLALIKDGRVIGGICFRMFPSQGFTEIVFCAVTSNEQVKGYGTHLMNHLKEYHIKHDILNFLTYADEYAIGYFKKQGFSKEIKIPKTKYVGYIKDYEGATLMGCELNPRIPYTE
in vitro acetylation with 14C-acetyl CoA, autoradiography [1]: but not by PCAF (not shown)

B2: CBP (CREB binding protein) from Biomol (protein)
chain: RKENKFSAKRLQTTRLGNHLEDRVNKFLRRQNHPEAGEVFVRVVASSDKTVEVKPGMKSRFVDSGEMSESFPYRTKALFAFEEIDGVDVCFFGMHVQEYGSDCPPPNTRRVYISYLDSIHFFRPRCLRTAVYHEILIGYLEYVKKLGYVTGHIWACPPSEGDDYIFHCHPPDQKIPKPKRLQEWYKKMLDKAFAERIIHDYKDIFKQATEDRLTSAKELPYFEGDFWPNVLEESIKELEQEEEERKKEESTAASETTEGSQGDSKNAKKKNNKKTNKNKSSISRANKKKPSMPNVSNDLSQKLYATMEKHKEVFFVIHLHAGPVINTLPPIVDPDPLLSCDLMDGRDAFLTLARDKHWEFSSLRRSKWSTLCMLVELHTQGQDRFVYTCNEC
in vitro acetylation with 14C-acetyl CoA, autoradiography [1]: purified SUMO-1 was efficiently acetylated by CBP (lane 3) | in vitro acetylation with 14C-acetyl CoA, autoradiography [2]: SUMO-2 and SUMO-3 were also robustly acetylated by CBP (FIG. 2D, lanes 6-7) | in vitro acetylation with 14C-acetyl CoA, autoradiography [3]: SUMO-2 and SUMO-3 were also robustly acetylated by CBP (FIG. 2D, lanes 6-7)
